Reference: US20170137467A1 (CHROMOTEK, published 2017)
Square brackets hold non-standard residues; d marks the D form. GABA = NCCCC(=O)O

Assays:
Experiment in all cases: positional peptide library pulldown on immobilised Nb, LC-MS of supernatant; signal ratio to control GFP-Nb (1 = not captured, near 0 = captured)
BC2T D2S = biological target: T1, BC2T D2S
T1 construct: positional scanning library member
T1 peptide: Ac-PSRKAAVSHWQQ-NH2
Summary of the method: (§1)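 Unbound peptide left in supernatant after 1 h pulldown in PBS/0.01% CHAPS measured by reversed-phase LC-MS (8–30% eluent B gradient, 20 min).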

BC2T A5Y = biological target: T2, BC2T A5Y
T2 construct: positional scanning library member
T2 peptide: Ac-PDRKYAVSHWQQ-NH2
Summary of the method: as §1

BC2T P1H = biological target: T3, BC2T P1H
T3 construct: positional scanning library member
T3 peptide: Ac-HDRKAAVSHWQQ-NH2
Summary of the method: as §1

BC2T K4N = biological target: T4, BC2T K4N
T4 construct: positional scanning library member
T4 peptide: Ac-PDRNAAVSHWQQ-NH2
Summary of the method: as §1

BC2T D2T = biological target: T5, BC2T D2T
T5 construct: positional scanning library member
T5 peptide: Ac-PTRKAAVSHWQQ-NH2
Summary of the method: as §1

BC2T D2N = biological target: T6, BC2T D2N
T6 construct: positional scanning library member
T6 peptide: Ac-PNRKAAVSHWQQ-NH2
Summary of the method: as §1

BC2T D2K = biological target: T7, BC2T D2K
T7 construct: positional scanning library member
T7 peptide: Ac-PKRKAAVSHWQQ-NH2
Summary of the method: as §1

BC2T K4H = biological target: T8, BC2T K4H
T8 construct: positional scanning library member
T8 peptide: Ac-PDRHAAVSHWQQ-NH2
Summary of the method: as §1

BC2T A5T = biological target: T9, BC2T A5T
T9 construct: positional scanning library member
T9 peptide: Ac-PDRKTAVSHWQQ-NH2
Summary of the method: as §1

BC2T A5F = biological target: T10, BC2T A5F
T10 construct: positional scanning library member
T10 peptide: Ac-PDRKFAVSHWQQ-NH2
Summary of the method: as §1

BC2T V7F = biological target: T11, BC2T V7F
T11 construct: positional scanning library member
T11 peptide: Ac-PDRKAAFSHWQQ-NH2
Summary of the method: as §1

BC2T A5S = biological target: T12, BC2T A5S
T12 construct: positional scanning library member
T12 peptide: Ac-PDRKSAVSHWQQ-NH2
Summary of the method: as §1

BC2T A6H = biological target: T13, BC2T A6H
T13 construct: positional scanning library member
T13 peptide: Ac-PDRKAHVSHWQQ-NH2
Summary of the method: as §1

BC2T K4T = biological target: T14, BC2T K4T
T14 construct: positional scanning library member
T14 peptide: Ac-PDRTAAVSHWQQ-NH2
Summary of the method: as §1

BC2T P1C(Abu) = biological target: T15, BC2T P1C(Abu) (SMILES …)
T15 construct: positional scanning library member
T15 peptide: Ac-[GABA]DRKAAVSHWQQ-NH2
Summary of the method: as §1

BC2T D2E = biological target: T16, BC2T D2E
T16 construct: positional scanning library member
T16 peptide: Ac-PERKAAVSHWQQ-NH2
Summary of the method: as §1

BC2T R3P = biological target: T17, BC2T R3P
T17 construct: positional scanning library member
T17 peptide: Ac-PDPKAAVSHWQQ-NH2
Summary of the method: as §1

BC2T R3Y = biological target: T18, BC2T R3Y
T18 construct: positional scanning library member
T18 peptide: Ac-PDYKAAVSHWQQ-NH2
Summary of the method: as §1

BC2T D2W = biological target: T19, BC2T D2W
T19 construct: positional scanning library member
T19 peptide: Ac-PWRKAAVSHWQQ-NH2
Summary of the method: as §1

BC2T Q11E = biological target: T20, BC2T Q11E
T20 construct: positional scanning library member
T20 peptide: Ac-PDRKAAVSHWEQ-NH2
Summary of the method: as §1

BC2T H9E = biological target: T21, BC2T H9E
T21 construct: positional scanning library member
T21 peptide: Ac-PDRKAAVSEWQQ-NH2
Summary of the method: as §1

BC2T Q11P = biological target: T22, BC2T Q11P
T22 construct: positional scanning library member
T22 peptide: Ac-PDRKAAVSHWPQ-NH2
Summary of the method: as §1

B1: BC2-NbR106E (VHH)
VHH: QVQLVESGGGLVQPGGSLTLSCTASGFTLDHYDIGWFRQAPGKEREGVSCINNSDDDTYYADSVKGRFTIFMDNAKDTVYLQMNSLKPEDTAIYYCAEARGCKRGEYEYDFWGQGTQVTVSS
notes: headlock mutant of BC2-Nb; immobilised on beads in this assay
What does the source list for B1?
ratio (BC2T D2S): 0.2; ratio (BC2T A5Y): 0.1; ratio (BC2T P1H): 0.4; ratio (BC2T K4N): 0.8; ratio (BC2T D2T): 0.1; ratio (BC2T D2N): 0.2; ratio (BC2T D2K): 0.1; ratio (BC2T K4H): 0.2; ratio (BC2T A5T): 0.1; ratio (BC2T A5F): 0.1; ratio (BC2T V7F): 0.2; ratio (BC2T A5S): 0.2; ratio (BC2T A6H): 1; ratio (BC2T K4T): 0.5; ratio (BC2T P1C(Abu)): 0.2; ratio (BC2T D2E): 0.2; ratio (BC2T R3P): 1; ratio (BC2T R3Y): 0.9; ratio (BC2T D2W): 0.1

B2: BC2 nanobody (VHH)
VHH: QVQLVESGGGLVQPGGSLTLSCTASGFTLDHYDIGWFRQAPGKEREGVSCINNSDDDTYYADSVKGRFTIFMDNAKDTVYLQMNSLKPEDTAIYYCAEARGCKRGRYEYDFWGQGTQVTVSS
notes: immobilised on beads in this assay; also called BC2-Nb; BC2 nanotrap (immobilised)
How did the ratio (BC2T Q11E) turn out when B2 was run?
The ratio was 0.1.

And the ratio (BC2T H9E)?
Its ratio is 0.2.

B3: BC2-NbR106S (VHH)
VHH: QVQLVESGGGLVQPGGSLTLSCTASGFTLDHYDIGWFRQAPGKEREGVSCINNSDDDTYYADSVKGRFTIFMDNAKDTVYLQMNSLKPEDTAIYYCAEARGCKRGSYEYDFWGQGTQVTVSS
notes: as for B1
B3 was tested. Which ratio (BC2T Q11P) did it give?
The ratio was 0.9.
